The source of these data is US20190065668A1 (published 2019).

The target of assay [1] is plasmepsin V in P. falciparum parasites (endogenous enzyme in trophozoites expressing PfEMP3-GFP) (Plasmodium falciparum, UniProt Q8I6Z5 1-590). As to the kind of experiment: cell-based or functional assay.
Assay [2] deals with recombinant P. falciparum plasmepsin V (residues N80-R528) (Plasmodium falciparum, UniProt Q8I6Z5 80-528). Put plainly: cell-based or functional assay.

Square brackets hold non-standard residues; d marks the D form. * marks the point of attachment. Sta = CC(C)C[C@H](N)[C@@H](O)CC(=O)O; NHPhenethyl = c1ccc(CCN*)cc1; Cbz = O=C(OCc1ccccc1)*

Chain of plasmepsin V in P. falciparum parasites (endogenous enzyme in trophozoites expressing PfEMP3-GFP) (Q8I6Z5 whole entry, the tested form may be a part): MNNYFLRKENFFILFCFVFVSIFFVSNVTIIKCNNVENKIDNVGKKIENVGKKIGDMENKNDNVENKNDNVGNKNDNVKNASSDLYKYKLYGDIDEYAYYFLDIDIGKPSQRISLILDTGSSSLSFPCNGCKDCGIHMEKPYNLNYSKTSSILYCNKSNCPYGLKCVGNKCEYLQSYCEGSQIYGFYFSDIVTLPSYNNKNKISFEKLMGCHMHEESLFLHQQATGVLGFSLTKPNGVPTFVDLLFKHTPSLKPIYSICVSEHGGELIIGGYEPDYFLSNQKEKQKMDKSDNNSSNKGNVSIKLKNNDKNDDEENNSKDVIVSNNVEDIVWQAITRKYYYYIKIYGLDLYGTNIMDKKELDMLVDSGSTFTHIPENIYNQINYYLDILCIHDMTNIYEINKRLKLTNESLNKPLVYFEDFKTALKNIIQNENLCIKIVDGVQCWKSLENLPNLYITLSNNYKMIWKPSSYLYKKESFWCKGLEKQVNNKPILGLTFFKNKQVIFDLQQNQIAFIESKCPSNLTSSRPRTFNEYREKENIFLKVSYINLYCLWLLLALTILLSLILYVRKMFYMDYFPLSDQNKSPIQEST
Chain of recombinant P. falciparum plasmepsin V (residues N80-R528) (Q8I6Z5 80-528): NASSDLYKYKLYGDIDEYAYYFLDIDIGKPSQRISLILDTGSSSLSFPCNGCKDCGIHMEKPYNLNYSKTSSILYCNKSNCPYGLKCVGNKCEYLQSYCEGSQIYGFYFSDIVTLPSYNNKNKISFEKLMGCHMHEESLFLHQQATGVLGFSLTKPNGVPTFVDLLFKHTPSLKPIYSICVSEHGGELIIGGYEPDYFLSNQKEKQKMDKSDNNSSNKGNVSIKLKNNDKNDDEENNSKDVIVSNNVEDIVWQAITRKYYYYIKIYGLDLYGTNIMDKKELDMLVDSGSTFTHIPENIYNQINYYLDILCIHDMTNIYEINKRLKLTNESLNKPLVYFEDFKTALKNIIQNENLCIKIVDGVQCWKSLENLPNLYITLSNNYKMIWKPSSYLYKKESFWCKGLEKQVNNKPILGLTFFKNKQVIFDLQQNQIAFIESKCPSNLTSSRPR

B1: WEHI-842, Cbz-Cav(NH2)-Val-Sta-NH(CH2)2Ph.TFA (peptide)
peptide: Cbz-X-Val-[Sta]-NHPhenethyl
modifications: not fully specified (residue 1); printed as Cbz-Cav(NH2)-Val-Sta-NH(CH2)2Ph; also: TFA salt
In the case of B1, in assay [1], the “inhibition of PEXEL processing of PfEMP3-GFP in parasites, immunoblot, fold against WEHI-916” value was 10 fold; the “inhibition of PfEMP3-GFP PEXEL cleavage in parasites, radiolabelling and densitometry, fold against WEHI-916” value was 10 fold. In addition, the “IC50, inhibition of cleavage of the fluorogenic KAHRP PEXEL peptide” value in assay [2] was found to be 0.79 nM.
